Where “and” joins values, the source holds several entries; their conditions need not be identical. Identical values can stand only once.

Test [1] addresses TAT-038 as carried by human tumor cell lines (H1299, PC-3, K562, HL-60) (human) (UniProt P15144). The test can be described thus: flow cytometry, PC3 human tumor cells.
For test [2] the target is unchanged. The test is described as follows: flow cytometry, K562 human tumor cells.
Test [3] has the same target. The test is described as follows: flow cytometry, PC-3 human tumor cells.
Test [4] shares this target. The test is described as follows: flow cytometry, H1299 human tumor cells.
Test [5] has the same target. The test can be described thus: flow cytometry, HL-60 human tumor cells.
Test [6] has as its target TAT-038 (full-length, cloned from human placenta cDNA, expressed from phCMV1-TAT-038 in stable 293G and BaF3 cells) (human) (UniProt P15144). The test is described as follows: flow cytometry, 293G cells stably expressing TAT-038 (293G-ANPEP).
The target is the same in test [7]. The test is described as follows: flow cytometry, BaF3 cells stably expressing TAT-038 (BAF3 ANPEP).

“Mouse monoclonal antibody WM15 (BD Pharmingen, cat#555393)”: the geometric mean fluorescence in test [1] was 125; in test [2], 7 and 9; in test [3], 47; in test [4] it was 4; in test [5], 23; in test [6], 221. Besides, the geometric mean fluorescence in test [7] amounted to 59.3.
